The results in this text go back to paper PMC6757138, “Biochemical and biophysical characterization of purified native CD20 alone and in complex with rituximab and obinutuzumab” (Scientific Reports, 2019).

The data set concerns the molecule itself. In words: AUC; sedimentation velocity, 60,000 rpm, 20 °C; CD20 at 0.5 mg/ml in 20 mM Tris pH 8.0, 150 mM NaCl, CALX-173-GK; also at 0.044 mg/ml after dilution with CALX-173-GK or DDM (0.05%) buffer, where the distribution shifts in favour of the monomer.

B1: CD20 (full length, wild type, C-terminal His6 tag) (natural protein, human, UniProt P11836 1-297, looked up)
chain: MTTPRNSVNGTFPAEPMKGPIAMQSGPKPLFRRMSSLVGPTQSFFMRESKTLGAVQIMNGLFHIALGGLLMIPAGIYAPICVTVWYPLWGGIMYIISGSLLAATEKNSRKCLVKGKMIMNSLSLFAAISGMILSIMDILNIKISHFLKMESLNFIRAHTPYINIYNCEPANPSEKNSPSTQYCYSIQSLFLGILSVMLIFAFFQELVIAGIVENEWKRTCSRPKSNIVLLSAEEKKEQTIEIKEEVVGLTETSSQPKNEEDIEIIPIQEEEEEETETNFPEPPQDQESSPIENDSSP
notes: CD20, human, UniProt P11836, full length and wild type, from plasmid pETR17026; Integral membrane protein held in calixarene detergent micelles (CALX-173-GK, or DDM after dilution); also called purified native CD20; recombinant native CD20; source: gel filtration in CALX-173-GK; not shown: His6, C-terminal, kept
For the protein B1, the binding result is recorded as “binds”.
